125 sequences from the supplement of paper PMC9112550, “Optimization of the antimicrobial peptide Bac7 by deep mutational scanning” (BMC Biology, 2022) can be followed below.

The test system of this data set is Escherichia coli TOP10. The data set is described as follows: shrunken log2 fold change of peptide-encoding DNA abundance (4.5 h post-induction vs induction); higher = less antimicrobial activity (less host growth inhibition). To be noted: time post-induction: 4.5 h; library: site-saturation at positions 5, 18, 19, 20.
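Also: peptides expressed intracellularly from a pBAD plasmid library in pooled LB shake-flask culture, induced with 0.3% L-arabinose, DNA abundance read by NGS, three biological replicates, DESeq2 with apeglm shrinkage.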

For the sequence RRIRNRPPRLPRPRPRPDFWPRP, the “shrunken log2 fold change” value came to 0.3.
The figure for RRIRFRPPRLPRPRPRPYFPPRP is -0.599; for RRIRCRPPRLPRPRPRPQPQPRP it is 0.526; for RRIRQRPPRLPRPRPRPICMPRP it is -0.0553.
The figure for RRIRERPPRLPRPRPRPTCKPRP is -0.0222.
The figure for RRIRLRPPRLPRPRPRPFGIPRP is -0.255.
Regarding RRIRDRPPRLPRPRPRPDCYPRP, the “shrunken log2 fold change” value is 0.269.
The figure for RRIRKRPPRLPRPRPRPPMLPRP is 0.203.
With RRIRHRPPRLPRPRPRPFWEPRP, the “shrunken log2 fold change” value is -0.218.
With RRIRTRPPRLPRPRPRPKDVPRP, the “shrunken log2 fold change” value was -0.0302.
The figure for RRIRSRPPRLPRPRPRPEKIPRP is -0.0469.
The figure for RRIRHRPPRLPRPRPRPWCGPRP is -0.181.
The figure for RRIRRRPPRLPRPRPRPCIPPRP is -0.867.
Regarding RRIRYRPPRLPRPRPRPWDGPRP, the “shrunken log2 fold change” value was -0.196.
RRIRVRPPRLPRPRPRPGKDPRP: the “shrunken log2 fold change” value was 0.114.
The figure for RRIRQRPPRLPRPRPRPGSKPRP is -0.00453; for RRIRNRPPRLPRPRPRPYQIPRP it is -0.0282; for RRIRCRPPRLPRPRPRPHMEPRP it is -0.194.
With RRIRCRPPRLPRPRPRPFWRPRP, the “shrunken log2 fold change” value is 0.0785.
The figure for RRIRFRPPRLPRPRPRPVNVPRP is -0.404; for RRIRDRPPRLPRPRPRPRSAPRP it is 0.321; for RRIRQRPPRLPRPRPRPNTSPRP it is -0.292.
The figure for RRIRIRPPRLPRPRPRPLRDPRP is 0.0322; for RRIRPRPPRLPRPRPRPWWMPRP it is 0.0483; for RRIRERPPRLPRPRPRPWNNPRP it is -0.653.
The figure for RRIRIRPPRLPRPRPRPFCWPRP is -0.0029.
With RRIRGRPPRLPRPRPRPKSCPRP, the “shrunken log2 fold change” value came to 0.959.
The figure for RRIRPRPPRLPRPRPRPIFIPRP is -0.389.
The figure for RRIRRRPPRLPRPRPRPHEVPRP is 0.0299; for RRIRVRPPRLPRPRPRPELRPRP it is 0.123; for RRIRVRPPRLPRPRPRPFVGPRP it is -0.0757.
The figure for RRIRRRPPRLPRPRPRPSCEPRP is 0.13.
On to RRIRERPPRLPRPRPRPEISPRP, for which the “shrunken log2 fold change” value is -0.407.
The figure for RRIRHRPPRLPRPRPRPRCRPRP is 0.615; for RRIRGRPPRLPRPRPRPTDTPRP it is 0.656; for RRIRWRPPRLPRPRPRPRGNPRP it is 0.423.
Consider RRIRCRPPRLPRPRPRPLHAPRP, for which the “shrunken log2 fold change” value worked out at 0.369.
The figure for RRIRARPPRLPRPRPRPSSEPRP is 0.271; for RRIRMRPPRLPRPRPRPDSFPRP it is -0.0586; for RRIRARPPRLPRPRPRPPWSPRP it is 0.585.
As to RRIRHRPPRLPRPRPRPYKKPRP, the “shrunken log2 fold change” value was -0.0963.
RRIRARPPRLPRPRPRPLRPPRP: the “shrunken log2 fold change” value turned out to be 1.08.
The figure for RRIRGRPPRLPRPRPRPKQEPRP is 0.0916.
The figure for RRIRPRPPRLPRPRPRPQLQPRP is -0.167; for RRIRPRPPRLPRPRPRPFLLPRP it is -0.516.
The figure for RRIRWRPPRLPRPRPRPMPTPRP is 0.721; for RRIRWRPPRLPRPRPRPEGGPRP it is 0.567; for RRIRRRPPRLPRPRPRPMMWPRP it is 0.487.
On to RRIRRRPPRLPRPRPRPWFFPRP, for which the “shrunken log2 fold change” value was 0.08.
The figure for RRIRDRPPRLPRPRPRPRLNPRP is -0.0317.
For the sequence RRIRWRPPRLPRPRPRPSEFPRP, the “shrunken log2 fold change” value stood at 0.144.
On to RRIRLRPPRLPRPRPRPPVDPRP, for which the “shrunken log2 fold change” value came out at 0.539.
As to RRIRTRPPRLPRPRPRPGKHPRP, the “shrunken log2 fold change” value is -0.803.
The figure for RRIRLRPPRLPRPRPRPSNLPRP is -0.181.
The figure for RRIRSRPPRLPRPRPRPVQAPRP is 0.0475; for RRIRQRPPRLPRPRPRPFMRPRP it is -0.0303; for RRIRNRPPRLPRPRPRPRLTPRP it is 0.252.
The figure for RRIRHRPPRLPRPRPRPPSCPRP is 0.604; for RRIRHRPPRLPRPRPRPFLFPRP it is -0.408; for RRIRYRPPRLPRPRPRPQDKPRP it is -0.341.
Turning to RRIRKRPPRLPRPRPRPIEIPRP, the “shrunken log2 fold change” value was -0.0122.
The figure for RRIRTRPPRLPRPRPRPVCDPRP is 0.0701; for RRIRCRPPRLPRPRPRPCAVPRP it is -0.29; for RRIRIRPPRLPRPRPRPWVAPRP it is -0.00986.
The figure for RRIRKRPPRLPRPRPRPATCPRP is 0.0272; for RRIRCRPPRLPRPRPRPRMNPRP it is -0.096.
RRIRPRPPRLPRPRPRPANYPRP: the “shrunken log2 fold change” value was found to be 0.0679.
The figure for RRIRIRPPRLPRPRPRPRFSPRP is -0.231; for RRIRWRPPRLPRPRPRPTWTPRP it is 0.303.
The figure for RRIRLRPPRLPRPRPRPTTFPRP is 0.0632; for RRIRRRPPRLPRPRPRPTDWPRP it is 0.414; for RRIRGRPPRLPRPRPRPHWWPRP it is 0.66.
Turning to RRIRERPPRLPRPRPRPYWMPRP, the “shrunken log2 fold change” value is -0.438.
The figure for RRIRSRPPRLPRPRPRPAKSPRP is 0.0744; for RRIRIRPPRLPRPRPRPNCAPRP it is -0.187; for RRIRIRPPRLPRPRPRPMEEPRP it is -0.00798.
The figure for RRIRHRPPRLPRPRPRPYNMPRP is -0.186.
The figure for RRIRVRPPRLPRPRPRPPWMPRP is -0.0435.
As for RRIRHRPPRLPRPRPRPSHTPRP, the “shrunken log2 fold change” value was -0.248.
As to RRIRQRPPRLPRPRPRPVCTPRP, the “shrunken log2 fold change” value turned out to be 0.0864.
The figure for RRIRLRPPRLPRPRPRPVFNPRP is -0.448.
Take RRIRRRPPRLPRPRPRPQDGPRP: the “shrunken log2 fold change” value turned out to be 0.106.
The figure for RRIRERPPRLPRPRPRPIRNPRP is -0.343.
The figure for RRIRRRPPRLPRPRPRPNQMPRP is 0.388.
RRIRQRPPRLPRPRPRPGILPRP: the “shrunken log2 fold change” value is -0.181.
The figure for RRIRERPPRLPRPRPRPRWGPRP is 0.239; for RRIRCRPPRLPRPRPRPLGRPRP it is -0.151.
With RRIRERPPRLPRPRPRPMMQPRP, the “shrunken log2 fold change” value is -0.0983.
The figure for RRIRWRPPRLPRPRPRPMGYPRP is -0.132; for RRIRRRPPRLPRPRPRPASGPRP it is 0.302.
The figure for RRIRPRPPRLPRPRPRPLDKPRP is -0.0324.
The figure for RRIRQRPPRLPRPRPRPKDFPRP is -0.00088.
With RRIRLRPPRLPRPRPRPQSLPRP, the “shrunken log2 fold change” value was -0.0995.
The figure for RRIRMRPPRLPRPRPRPLIDPRP is 0.356; for RRIRPRPPRLPRPRPRPCKDPRP it is -0.374; for RRIRFRPPRLPRPRPRPCEVPRP it is -0.0179.
Regarding RRIRKRPPRLPRPRPRPKTWPRP, the “shrunken log2 fold change” value was 0.344.
As for RRIRWRPPRLPRPRPRPKVYPRP, the “shrunken log2 fold change” value was -0.0533.
The figure for RRIRIRPPRLPRPRPRPVDMPRP is -0.51; for RRIRNRPPRLPRPRPRPPHQPRP it is 0.0134.
For RRIRGRPPRLPRPRPRPPHVPRP, the “shrunken log2 fold change” value is 1.04.
The figure for RRIRQRPPRLPRPRPRPNFHPRP is -0.232; for RRIRIRPPRLPRPRPRPDALPRP it is -0.206.
For the sequence RRIRARPPRLPRPRPRPIMCPRP, the “shrunken log2 fold change” value is -0.0139.
For the sequence RRIRFRPPRLPRPRPRPSGSPRP, the “shrunken log2 fold change” value was -0.192.
The figure for RRIRERPPRLPRPRPRPCIWPRP is -0.0915; for RRIRERPPRLPRPRPRPNLNPRP it is -0.58; for RRIRWRPPRLPRPRPRPYGFPRP it is -0.00325.
Take RRIRWRPPRLPRPRPRPHERPRP: the “shrunken log2 fold change” value came to 0.156.
The figure for RRIRKRPPRLPRPRPRPRMNPRP is 0.115; for RRIRTRPPRLPRPRPRPQKEPRP it is 0.0092; for RRIRFRPPRLPRPRPRPYHIPRP it is -0.081.
The figure for RRIRCRPPRLPRPRPRPDCKPRP is -0.392.
The figure for RRIRARPPRLPRPRPRPPPWPRP is 1.03.
Turning to RRIRARPPRLPRPRPRPCMWPRP, the “shrunken log2 fold change” value amounted to 0.117.
The figure for RRIRYRPPRLPRPRPRPNNPPRP is -0.359.
Turning to RRIRQRPPRLPRPRPRPDYPPRP, the “shrunken log2 fold change” value worked out at 0.00454.
The figure for RRIRFRPPRLPRPRPRPWIYPRP is -0.662.
In the case of RRIRTRPPRLPRPRPRPDFVPRP, the “shrunken log2 fold change” value was -0.106.
The figure for RRIRIRPPRLPRPRPRPCFIPRP is -0.503; for RRIRDRPPRLPRPRPRPQDLPRP it is 0.0112.
The figure for RRIRPRPPRLPRPRPRPPEGPRP is 0.436; for RRIRLRPPRLPRPRPRPKLEPRP it is -0.354.
The figure for RRIRGRPPRLPRPRPRPQHQPRP is 0.524; for RRIRSRPPRLPRPRPRPIDEPRP it is 0.0325.
